According to patent US20120121594A1 (published 2012):

Assays:
Test in all cases: cell-based or functional assay
Mouse IL-6 = biological target: T1, Mouse IL-6 (mouse, UniProt P08505 25-211, limits assumed)
T1 sequence (looked up): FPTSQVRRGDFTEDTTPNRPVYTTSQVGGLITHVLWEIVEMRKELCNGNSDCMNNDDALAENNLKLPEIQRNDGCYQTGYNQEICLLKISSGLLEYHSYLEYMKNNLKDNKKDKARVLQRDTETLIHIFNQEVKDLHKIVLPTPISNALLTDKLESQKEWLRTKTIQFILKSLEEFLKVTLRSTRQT

Cynomolgus monkey IL-6 = biological target: T2, Cynomolgus monkey IL-6 (cynomolgus monkey, UniProt P79341 28-212, limits assumed)
T2 sequence (looked up): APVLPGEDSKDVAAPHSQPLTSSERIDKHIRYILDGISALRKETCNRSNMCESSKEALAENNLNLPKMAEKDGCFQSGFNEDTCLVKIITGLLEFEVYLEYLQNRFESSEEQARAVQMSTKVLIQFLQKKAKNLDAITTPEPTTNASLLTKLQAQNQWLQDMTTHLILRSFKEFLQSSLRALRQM

Human IL-6 = Human IL-6 (human, UniProt P05231 30-212)
Rat IL-6 = biological target: T3, Rat IL-6 (rat, UniProt P20607 25-211, limits assumed)
T3 sequence (looked up): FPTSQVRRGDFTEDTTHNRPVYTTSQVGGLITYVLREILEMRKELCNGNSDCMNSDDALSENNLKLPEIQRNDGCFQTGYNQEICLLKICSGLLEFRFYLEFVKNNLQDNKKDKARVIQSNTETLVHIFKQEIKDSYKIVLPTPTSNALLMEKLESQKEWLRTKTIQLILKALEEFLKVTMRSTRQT

IC50 (pM), T1165 cell proliferation assay (Mouse IL-6): 1840 pM
IC50 (pM), T1165 cell proliferation assay (Cynomolgus monkey IL-6): 12 pM
IC50 (pM), T1165 cell proliferation assay (Human IL-6): 13 pM
IC50 (pM), T1165 cell proliferation assay (Rat IL-6): 2060 pM
B1: Ab1 (antibody, human IgG1, kappa, N297A, V domains shown)
VH: EVQLVESGGGLVQPGGSLRLSCAASGFSLSNYYVTWVRQAPGKGLEWVGIIYGSDETAYATSAIGRFTISRDNSKNTLYLQMNSLRAEDTAVYYCARDDSSDWDAKFNLWGQGTLVTVSS
VL: AIQMTQSPSSLSASVGDRVTITCQASQSINNELSWYQQKPGKAPKLLIYRASTLASGVPSRFSGSGSGTDFTLTISSLQPDDFATYYCQQGYSLRNIDNAFGGGTKVEIKR
